Source: patent US20110245473A1 (Chugai, published 2011)
Where a chain is given by its changes, count along the chain named. Numbers in names are those of the source.

What was measured:
[1] = target: T1, SR344 (soluble human IL-6R, N-terminal 1st to 344th amino acids) (human, UniProt P08887 20-344, limits assumed); test: cell-based or functional assay
T1 sequence (looked up): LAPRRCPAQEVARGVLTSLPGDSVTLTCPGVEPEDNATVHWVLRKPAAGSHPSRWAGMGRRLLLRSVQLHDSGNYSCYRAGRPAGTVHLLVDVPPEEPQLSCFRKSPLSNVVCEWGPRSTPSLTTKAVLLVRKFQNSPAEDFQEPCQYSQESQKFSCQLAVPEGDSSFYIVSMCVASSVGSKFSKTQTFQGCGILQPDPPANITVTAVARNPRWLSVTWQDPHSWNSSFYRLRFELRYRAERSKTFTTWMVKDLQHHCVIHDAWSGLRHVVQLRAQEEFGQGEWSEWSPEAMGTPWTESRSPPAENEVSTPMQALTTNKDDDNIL

[2] = target: T2, recombinant human IL-6R sR (R&D systems) (human, UniProt P08887 20-358); test: SPR (Biacore T100), antibody captured on Protein A, rhIL-6sR as analyte, 25°C
T2 construct: Bought soluble receptor; also called rhIL-6sR; rhIL-s6R
T2 sequence (looked up): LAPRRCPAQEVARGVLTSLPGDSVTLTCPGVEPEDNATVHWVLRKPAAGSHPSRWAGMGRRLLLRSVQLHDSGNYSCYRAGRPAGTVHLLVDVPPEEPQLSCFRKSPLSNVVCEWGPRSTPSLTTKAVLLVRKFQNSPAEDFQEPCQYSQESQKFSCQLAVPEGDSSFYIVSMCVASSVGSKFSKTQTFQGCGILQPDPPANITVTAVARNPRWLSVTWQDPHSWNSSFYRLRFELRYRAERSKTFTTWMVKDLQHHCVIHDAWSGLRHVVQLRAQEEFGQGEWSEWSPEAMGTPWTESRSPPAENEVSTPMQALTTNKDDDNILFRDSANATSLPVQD

[3] = target: T2, recombinant human IL-6R sR (R&D systems); test: as above; remark: listed apart in the source
[4] = target: T2, recombinant human IL-6R sR (R&D systems); test: SPR (Biacore T100), antibody captured on Protein A/G, 37°C; end of the range tied by the KD values of Table 3
[5] = target: T1, SR344 (soluble human IL-6R, N-terminal …); test: as above
[6] = target: T1, SR344 (soluble human IL-6R, N-terminal …); test: SPR (Biacore T100), antibody captured on Protein A/G, SR344 as analyte, 37°C
[7] = target: T3, soluble human FcRn (complex of FcRn and β2-microglobulin) (human, UniProt P55899 24-290; P61769 21-119); test: SPR (Biacore 3000), antibody captured, human FcRn as analyte, pH 6.0
T3 construct: Expressed constructs contain the signal regions (FcRn Met1-Leu290; β2-microglobulin Met1-Met119); also called hFcRn
T3 sequence (P55899 24-290 limits assumed, chain 1 of 2): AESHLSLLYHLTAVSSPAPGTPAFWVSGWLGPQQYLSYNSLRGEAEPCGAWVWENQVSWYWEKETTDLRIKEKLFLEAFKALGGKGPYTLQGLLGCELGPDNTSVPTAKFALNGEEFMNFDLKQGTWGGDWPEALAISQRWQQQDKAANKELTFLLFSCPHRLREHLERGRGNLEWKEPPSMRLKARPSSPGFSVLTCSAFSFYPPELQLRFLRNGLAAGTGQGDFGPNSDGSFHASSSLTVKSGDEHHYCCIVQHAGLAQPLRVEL
T3 sequence (P61769 21-119 limits assumed, chain 2 of 2): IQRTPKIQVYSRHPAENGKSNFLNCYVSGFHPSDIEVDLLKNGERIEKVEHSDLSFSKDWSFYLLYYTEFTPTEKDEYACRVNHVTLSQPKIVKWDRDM

[8] = target: T1, SR344 (soluble human IL-6R, N-terminal …); test: SPR (Biacore T100), SR344 as analyte, 37°C; end of the range tied by the KD values of Table 16

B1: RD-6 (antibody, V domains shown)
VH: QVQLQESGPGLVRPSQTLSLTCTVSGYSITSDHAWSWVRQPPGRGLEWIGYISYSGITTYNPSLKSRVTMLRDTSKNQFSLRLSSVTAADTAVYYCARLLARATAMDYWGQGSLVTVSS
VL: DIQMTQSPSSLSASVGDRVTITCRASQDISSYLNWYQQKPGKAPKLLIYYTSRLHSGVPSRFSGSGSGTDFTFTISSLQPEDIATYYCQQGNTLPYTFGQGTKVEIK
- BaF/gp130-neutralizing activity, 100% inhibitory concentration, against WT [1]: ~50 times higher than WT
- fold higher affinity than WT [2]: ~50 times

B2: RDC-8 (antibody, V domains shown)
VH: B1 VH with A103I
VL: B1 VL
notes: IgG; also called H chain RDC-8H, L chain L(WT)
- koff [3]: 3.8e-05 s⁻¹

B3: RDC-23 (antibody, V domains shown)
VH: B1 VH with L99V, A103I
VL: B1 VL with Q89G, T93R
notes: IgG; also called H chain RDC-5H, L chain RDC-11L
- BaF/gp130-neutralizing activity, 100% inhibitory concentration, against WT [1]: ~100 times higher than WT
- fold improved affinity compared to WT [4]: 40 to 60 times
- fold improved affinity compared to WT [5]: 40 to 60 times

B4: F2H/L39-IgG1 (antibody, V domains shown)
VH: QVQLQESGPGLVKPSETLSLTCAVSGYSISDDHAWSWVRQPPGEGLEWIGYISYSGITNYNPSLQDRVTISRDNSKNTLYLQMNSLRAEDTAVYYCARLLARATAMDYWGQGILVTVSS
VL: DIQMTQSPSSLSASVGDSVTITCQASEDISSYLNWYQQKPGKAPELLIYYGSELESGVPSRFSGSGSGTDFTFTISSLEAEDAATYYCGQGNRLPYTFGQGTKVEIER
- BaF/gp130-neutralizing activity, 100% inhibitory concentration, against WT [1]: ≥ 100 times higher than WT
- ka relative to PF1-IgG1 [6]: ~0.5 fold of PF1-IgG1

B5: WT-M58 (antibody)
heavy: QVQLQESGPGLVRPSQTLSLTCTVSGYSITSDHAWSWVRQPPGRGLEWIGYISYSGITTYNPSLKSRVTMLRDTSKNQFSLRLSSVTAADTAVYYCARSLARTTAMDYWGQGSLVTVSSASTKGPSVFPLAPSSKSTSGGTAALGCLVKDYFPEPVTVSWNSGALTSGVHTFPAVLQSSGLYSLSSVVTVPSSNFGTQTYTCNVDHKPSNTKVDKTVERKSCVECPPCPAPPVAGPSVFLFPPKPKDTLMISRTPEVTCVVVDVSQEDPEVQFNWYVDGVEVHNAKTKPREEQFNSTFRVVSVLTVVHQDWLNGKEYKCKVSNKGLPAPIEKTISKTKGQPREPQVYTLPPSQEEMTKNQVSLTCLVKGFYPSDIAVEWESNGQPENNYKTTPPMLDSDGSFFLYSKLTVDKSRWQEGNVFSCSVMHEALHNHYTQKSLSLSP
light: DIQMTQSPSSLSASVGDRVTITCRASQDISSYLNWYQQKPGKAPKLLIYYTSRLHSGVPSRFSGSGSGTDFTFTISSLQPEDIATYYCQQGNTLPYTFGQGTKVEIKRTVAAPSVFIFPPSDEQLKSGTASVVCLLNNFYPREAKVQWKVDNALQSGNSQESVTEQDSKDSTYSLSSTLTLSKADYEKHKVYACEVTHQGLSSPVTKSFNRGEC
notes: L(WT) as L chain; copies: 2 + 2
- binding relative to WT-IgG1 [7]: ~1.4 times of WT-IgG1

B6: WT-M73 (antibody)
heavy: B5 heavy with N432A
light: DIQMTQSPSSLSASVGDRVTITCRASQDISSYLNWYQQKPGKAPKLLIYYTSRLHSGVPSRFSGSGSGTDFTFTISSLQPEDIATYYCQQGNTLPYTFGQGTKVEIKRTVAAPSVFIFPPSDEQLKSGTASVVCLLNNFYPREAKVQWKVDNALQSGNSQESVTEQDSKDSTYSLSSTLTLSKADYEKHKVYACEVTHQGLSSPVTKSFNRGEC
notes: WT-M58 with alanine at position 434 (EU numbering); L(WT) as L chain; copies: 2 + 2
- binding relative to WT-IgG1 [7]: ~3.8 times of WT-IgG1

B7: Fv3-M73 (antibody, V domains shown)
VH: B4 VH with Y27H, D31H, Y51F, S63T, D66G, L99S, A103T, Q111E, I113T
VL: B4 VL with E27R, Y32H, E53H, E55L
notes: also called H chain VH4-M73, L chain VL1-kappa
- fold higher affinity than TOCILIZUMAB [8]: 3 times

B8: Fv4-M73 (antibody, V domains shown)
VH: B4 VH with Y27H, D31H, Y51F, D66G, L99S, A103T, Q111E, I113T
VL: B4 VL with E27T, Y32H, E53H, E55L
notes: also called H chain VH3-M73, L chain VL3-kappa
- fold higher affinity than TOCILIZUMAB [8]: 2 times

B9: H53/L28 (antibody, IgG1, V domains shown)
VH: QVQLQESGPGLVKPSETLSLTCAVSGYSISDDHAWSWVRQPPGEGLEWIGYISYSGITNYNPSLKGRVTISRDTSKNQFSLKLSSVTAADTAAYYCARSLARTTAMDYWGEGTLVTVSS
VL: B1 VL with R18S, R24Q, K45E, T51G, R53E, Q79E, P80A, I83A, T93S, K107E
notes: made from the humanized PM-1 IgG1 vectors; also called altered antibody H53/L28
- fold reduction of KD compared to WT [6]: ~6 fold

B10: PF1 antibody (antibody, IgG1, V domains shown)
VH: B9 VH with S99V, T103I
VL: DIQMTQSPSSLSASVGDSVTITCQASQDISSYLNWYQQKPGKAPELLIYYGSELHSGVPSRFSGSGSGTDFTFTISSLEAEDAATYYCGQGNRLPYTFGQGTKVEIE
notes: also called PF1-IgG1; PF1_H/PF1_L
- fold improved affinity compared to WT [6]: ~150 times
